Experimental data from PMC2742502 (Journal of immunology (Baltimore, Md. : 1950), 2008).

Columns and labels:
[1] = target: purified HLA A*0201 molecules (with human β2-microglobulin) (human (endogenous in EBV transformed cell lines) | human); assay: radioligand binding
[2] = test system: PBMC; type: cell-based, human
[3] = test system: T cells from healthy donors; details: heteroclitic HLA-A0201-restricted epitope; cited from earlier work

HCV NS3 1406-1415 epitope peptide … (Lp5)
IC50 [1]: 5 nM

phytohemmaglutinin [PHA]
response in positive control [2]: uniformly positive

B1: Melan-A epitope (L26–35): heteroclitic HLA-A0201-restricted Melan-A epitope (peptide, UniProt Q16655 1-118, looked up, variant A27L)
Melanoma antigen recognized …: MPREDAHFIYGYPKKGHGHSYTTAEELAGIGILTVILGVLLLIGCWYCRRRNGYRALMDKSLHVGTQCALTRRCPQEGFDHRDSKVSLQEKNCEPVVPNAPPAYEKLSAEQSPPPYSP
modifications: epitope 26-35
frequency of T cells recognizing the epitope [3]: relatively frequent
